According to patent US20150368625A1 (MIT, published 2015):
Changes are numbered by the printed parent chain.

B1: T7 sigma-like fragment with 601 split + SZ18 (other)
chain: MSIAATLENDLARLENENARLEKDIANLERDLAKLEREEAYFGGSGGKNTGEISEKVKLGTKALAGQWLAYGVTRSVTKSSVMTLAYGSKEFGFRQQVLEDTIQPAIDSGKGLMFTQPNQAAGYMAKLIWESVSVTVVAAVEAMNWLKSAAKLLAAEVKDKKTGEILRKRCAVHWVTPDGFPVWQEYKKPIQTRLNLMFLGQFRLQPTINTNKDSEIDAHKQESGIAPNFVHSQDGSHLRKTVVWAHEKYGIESFALIHDSFGTIPADAANLFKAVRETMVDTYESCDVLADFYDQFADQLHESQLDKMPALPAKGNLNLRDILESDFAFA
notes: also called T7 fragment; variable fragment
B2: K1FR sigma-like fragment with 601 split + SZ18 (other)
chain: B1 chain with S80R, M198R, Q202S, R204N, I209V
B3: T3 sigma-like fragment with 601 split + SZ18 (other)
chain: B1 chain with S80R, T193K, N196D, L197M, M198I
notes: also called T3 fragment; T3 sigma factor

Molecular target: T1, Core fragment with 601 split + SZ17 (Bacteriophage T7, UniProt P00573 1-601)
T1 construct: Expressed constitutively in cells from a single copy plasmid, not purified; also called conserved fragment; 1-601 fragment
T1 sequence (P00573 1-601, tags or fused parts left off): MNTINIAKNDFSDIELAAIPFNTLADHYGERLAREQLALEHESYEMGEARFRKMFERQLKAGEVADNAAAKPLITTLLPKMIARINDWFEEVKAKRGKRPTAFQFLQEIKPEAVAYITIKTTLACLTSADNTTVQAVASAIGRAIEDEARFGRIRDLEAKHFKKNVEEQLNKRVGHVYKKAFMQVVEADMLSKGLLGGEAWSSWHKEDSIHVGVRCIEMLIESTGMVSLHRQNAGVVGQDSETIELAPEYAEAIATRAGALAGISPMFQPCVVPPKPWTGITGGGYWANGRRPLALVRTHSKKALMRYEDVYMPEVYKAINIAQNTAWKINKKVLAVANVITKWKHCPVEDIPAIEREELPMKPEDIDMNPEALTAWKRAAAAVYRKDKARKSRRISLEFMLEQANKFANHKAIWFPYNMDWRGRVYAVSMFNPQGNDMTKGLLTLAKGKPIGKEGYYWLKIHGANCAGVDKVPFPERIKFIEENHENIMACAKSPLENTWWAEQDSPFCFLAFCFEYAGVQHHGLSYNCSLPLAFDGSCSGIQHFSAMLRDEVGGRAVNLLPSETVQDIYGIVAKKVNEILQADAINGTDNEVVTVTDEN
Experiment: reporter assay in cells: core at a constant level, sigma-like fragment induced, promoter->sfgfp read by flow cytometry
Experimental: Cells containing the three test plasmids (constitutive expression of core, promoter->sfgfp reporter, and pTac->sigma-like fragment) were inoculated into 0.5 mL LB+antibiotics and grown to saturation overnight. The overnight cultures were diluted 1:200 into 0.15 mL LB+antibiotics+100 μM IPTG and grown at 37° C., 1000 rpm for 6 hours. The fluorescence of the cells was quantified using a flow cytometer (FIG. 8). The assay was performed on three separate days, with three technical replicates per day. Data shown is the average value over all three days, with error bars representing the standard deviation between the mean values on each day.

| Binder | binding result |
| --- | --- |
| B1 | binds |
| B2 | binds |
| B3 | binds |
